In patent publication US20030113711A1, “Protein kinase peptide substrate determination using peptide libraries” (priority 2001, published 2003):

Key:
Assay type in all cases: biochemical
[1] = substrate: CC[C@H](C)[C@H](NC(=O)[C@H](CCC(=O)O)NC(=O)[C@H](Cc1c[nH]cn1)NC(=O)[C@H](Cc1c[nH]cn1)NC(=O)[C@H](C)NC(=O)[C@H](CCCNC(=N)N)NC(=O)CCCCCNC(=O)CCCC[C@@H]1SC[C@@H]2NC(=O)N[C@@H]21)C(=O)N[C@@H](Cc1ccc(O)cc1)C(=O)N[C@@H](Cc1c[nH]cn1)C(=O)N[C@@H](Cc1ccccc1)C(=O)N[C@@H](Cc1ccccc1)C(=O)N[C@@H](Cc1ccccc1)C(=O)N[C@@H](C)C(=O)N[C@@H](CCCCN)C(=O)N[C@@H](CCCCN)C(=O)N[C@@H](CCCCN)C(N)=O; experiment: Kinetic evaluation of peptide substrates, varying peptide at fixed ATP (phosphocellulose filter, [γ-33P]ATP); conditions: other: ErbB-4; Km for peptide; ATP concentration >10 × Km (200 μM ATP); pH 7.5; 23.0 °C
Description: (§1) Peptide sequences identified as preferred substrates for ErbB-2 using the methods described in Laboratory Example 3 were synthesized. The kcat and Km values for each peptide were determined as follows, using the kinases ErbB-2, ErbB-4, and EGFR.
(§2) Reactions were performed in 96-well polystyrene round bottom plates in a final volume of 45 μL. Reaction mixtures contained 50 mM MOPS, pH 7.5, 10 mM MnCl2, 1 mM dithiothreitol (DTT), 200 μM ATP, 1.0 μCi [γ-^33P] ATP, and varying concentrations of peptide. The reaction was initiated by adding the purified kinase of interest and halted after 10 minutes at 23° C. (room temperature) by adding 45 μL of 0.5% phosphoric acid in water. A 75 μL aliquot of the halted reaction mixture was then transferred to MAPH phosphocellulose filter plates (Millipore, Bedford, Mass.). The plates were filtered three times with 0.2 mL of 0.5 percent phosphoric acid. Scintillation cocktail (50 μL) was added to each well, and the plate was analyzed by counting in a Packard TOPCOUNT® scintillation counter (Packard Instrument Co., Meriden, Conn.). In these assays, the concentration of ATP was greater than ten-fold higher than the Km for ATP, which permitted the kinetic data to be treated as a pseudo-first-order reaction with varying peptide concentration. All experiments were performed in quadruplicate and the average value for each data point was analyzed. The Km and Vmax values were calculated by fitting the data to the Henri-Michaelis-Menten equation by non-linear regression using SIGMAPLOT® (SPSS Science, Chicago, Ill.). kcat values were calculated using the Vmax value, and are based on the protein concentration of the enzyme preparation and an estimate of purity determined from an evaluation of a Coomassie Blue stained SDS-polyacrylamide gel.

[2] = substrate: C[C@H](NC(=O)[C@H](CCCNC(=N)N)NC(=O)CCCCCNC(=O)CCCC[C@@H]1SC[C@@H]2NC(=O)N[C@@H]21)C(=O)N[C@@H](Cc1c[nH]cn1)C(=O)N[C@@H](CCC(=O)O)C(=O)N[C@@H](CCC(=O)O)C(=O)N[C@@H](CCC(=O)O)C(=O)N[C@@H](Cc1ccc(O)cc1)C(=O)N[C@@H](Cc1c[nH]cn1)C(=O)N[C@@H](Cc1ccccc1)C(=O)N[C@@H](Cc1ccccc1)C(=O)N[C@@H](Cc1ccccc1)C(=O)N[C@@H](C)C(=O)N[C@@H](CCCCN)C(=O)N[C@@H](CCCCN)C(=O)N[C@@H](CCCCN)C(N)=O; experiment: as above; conditions: other: ErbB-4; Km for peptide; ATP concentration >10 × Km (200 μM ATP); pH 7.5; 23.0 °C
Description: as §1, §2

[3] = substrate: CC[C@H](C)[C@H](NC(=O)[C@H](CCC(=O)O)NC(=O)[C@H](CCC(=O)O)NC(=O)[C@H](Cc1c[nH]cn1)NC(=O)[C@H](C)NC(=O)[C@H](CCCNC(=N)N)NC(=O)CCCCCNC(=O)CCCC[C@@H]1SC[C@@H]2NC(=O)N[C@@H]21)C(=O)N[C@@H](Cc1ccc(O)cc1)C(=O)N[C@@H](Cc1c[nH]cn1)C(=O)N[C@@H](Cc1ccccc1)C(=O)N[C@@H](Cc1ccccc1)C(=O)N[C@@H](Cc1ccccc1)C(=O)N[C@@H](C)C(=O)N[C@@H](CCCCN)C(=O)N[C@@H](CCCCN)C(=O)N[C@@H](CCCCN)C(N)=O; experiment: as above; conditions: other: ErbB-4; Km for peptide; ATP concentration >10 × Km (200 μM ATP); pH 7.5; 23.0 °C
Description: as §1, §2

[4] = substrate: CC[C@H](C)[C@H](NC(=O)[C@H](Cc1ccccc1)NC(=O)[C@H](Cc1c[nH]cn1)NC(=O)[C@H](Cc1ccc(O)cc1)NC(=O)[C@H](CCC(=O)O)NC(=O)[C@H](CCC(=O)O)NC(=O)[C@H](CCC(=O)O)NC(=O)[C@H](Cc1c[nH]cn1)NC(=O)[C@H](C)NC(=O)[C@H](CCCNC(=N)N)NC(=O)CCCCCNC(=O)CCCC[C@@H]1SC[C@@H]2NC(=O)N[C@@H]21)C(=O)N[C@@H](Cc1ccccc1)C(=O)N[C@@H](C)C(=O)N[C@@H](CCCCN)C(=O)N[C@@H](CCCCN)C(=O)N[C@@H](CCCCN)C(N)=O; experiment: as above; conditions: other: ErbB-4; Km for peptide; ATP concentration >10 × Km (200 μM ATP); pH 7.5; 23.0 °C
Description: as §1, §2

[5] = substrate: CC[C@H](C)[C@H](NC(=O)[C@H](CCC(=O)O)NC(=O)[C@H](CCC(=O)O)NC(=O)[C@H](Cc1c[nH]cn1)NC(=O)[C@H](C)NC(=O)[C@H](CCCNC(=N)N)NC(=O)CCCCCNC(=O)CCCC[C@@H]1SC[C@@H]2NC(=O)N[C@@H]21)C(=O)N[C@@H](Cc1ccc(O)cc1)C(=O)N[C@@H](Cc1c[nH]cn1)C(=O)N[C@@H](Cc1ccccc1)C(=O)N[C@@H](Cc1ccccc1)C(=O)N[C@@H](Cc1ccccc1)C(=O)N[C@@H](C)C(=O)N[C@@H](CCCCN)C(=O)N[C@@H](CCCCN)C(=O)N[C@@H](CCCCN)C(N)=O; experiment: Two-substrate kinetic comparison with known substrate, peptide and ATP varied simultaneously; conditions: other: ErbB-4; peptide and ATP concentrations varied simultaneously, two-substrate fit
Description: (§3) In a separate experiment, the kinetic parameters of both peptide number 1 shown in Table 2, and a peptide with the sequence Biotin-Ahx-G-G-M-E-D-I-Y-F-E-F-M-G-G-K-K-K-amide (SEQ ID NO: 17), which has been previously identified as an ErbB-2 substrate (Jan et. al., (2000), Biochemistry 39: 9786-803), were determined and compared. In this experiment, both peptide and ATP concentrations were varied, and the resulting data was simultaneously fit to an equation representing a two-substrate enzyme reaction using SIGMAPLOT®. Data was collected using the kinases ErbB-2, ErbB-4, and EGFR. The results of this experiment are shown in Table 3 and indicate that for all three kinases tested, peptide number 1 shown in Table 2 is kinetically at least equivalent (based on kcat/Km values) to the known peptide substrate identified by Jan et al.

[6] = substrate: CC[C@H](C)[C@H](NC(=O)[C@H](CC(=O)O)NC(=O)[C@H](CCC(=O)O)NC(=O)[C@H](CCSC)NC(=O)CNC(=O)CNC(=O)CCCCCNC(=O)CCCC[C@@H]1SC[C@@H]2NC(=O)N[C@@H]21)C(=O)N[C@@H](Cc1ccc(O)cc1)C(=O)N[C@@H](Cc1ccccc1)C(=O)N[C@@H](CCC(=O)O)C(=O)N[C@@H](Cc1ccccc1)C(=O)N[C@@H](CCSC)C(=O)NCC(=O)NCC(=O)N[C@@H](CCCCN)C(=O)N[C@@H](CCCCN)C(=O)N[C@@H](CCCCN)C(N)=O; experiment: as above; conditions: other: ErbB-4; peptide and ATP concentrations varied simultaneously, two-substrate fit
Description: as §3

B1: ErbB-4 (Homo sapiens) (protein)
chain: QSVCAGTENKLSSLSDLEQQYRALRKYYENCEVVMGNLEITSIEHNRDLSFLRSVREVTGYVLVALNQFRYLPLENLRIIRGTKLYEDRYALAIFLNYRKDGNFGLQELGLKNLTEILNGGVYVDQNKFLCYADTIHWQDIVRNPWPSNLTLVSTNGSSGCGRCHKSCTGRCWGPTENHCQTLTRTVCAEQCDGRCYGPYVSDCCHRECAGGCSGPKDTDCFACMNFNDSGACVTQCPQTFVYNPTTFQLEHNFNAKYTYGAFCVKKCPHNFVVDSSSCVRACPSSKMEVEENGIKMCKPCTDICPKACDGIGTGSLMSAQTVDSSNIDKFINCTKINGNLIFLVTGIHGDPYNAIEAIDPEKLNVFRTVREITGFLNIQSWPPNMTDFSVFSNLVTIGGRVLYSGLSLLILKQQGITSLQFQSLKEISAGNIYITDNSNLCYYHTINWTTLFSTINQRIVIRDNRKAENCTAEGMVCNHLCSSDGCWGPGPDQCLSCRRFSRGRICIESCNLYDGEFREFENGSICVECDPQCEKMEDGLLTCHGPGPDNCTKCSHFKDGPNCVEKCPDGLQGANSFIFKYADPDRECHPCHPNCTQGCNGPTSHDCIYYPWTGHSTLPQHARTPLIAAGVIGGLFILVIVGLTFAVYVRRKSIKKKRALRRFLETELVEPLTPSGTAPNQAQLRILKETELKRVKVLGSGAFGTVYKGIWVPEGETVKIPVAIKILNETTGPKANVEFMDEALIMASMDHPHLVRLLGVCLSPTIQLVTQLMPHGCLLEYVHEHKDNIGSQLLLNWCVQIAKGMMYLEERRLVHRDLAARNVLVKSPNHVKITDFGLARLLEGDEKEYNADGGKMPIKWMALECIHYRKFTHQSDVWSYGVTIWELMTFGGKPYDGIPTREIPDLLEKGERLPQPPICTIDVYMVMVKCWMIDADSRPKFKELAAEFSRMARDPQRYLVIQGDDRMKLPSPNDSKFFQNLLDEEDLEDMMDAEEYLVPQAFNIPPPIYTSRARIDSNRSEIGHSPPPAYTPMSGNQFVYRDGGFAAEQGVSVPYRAPTSTIPEAPVAQGATAEIFDDSCCNGTLRKPVAPHVQEDSSTQRYSADPTVFAPERSPRGELDEEGYMTPMRDKPKQEYLNPVEENPFVSRRKNGDLQALDNPEYHNASNGPPKAEDEYVNEPLYLNTFANTLGKAEYLKNNILSMPEKAKKAFDNPDYWNHSLPPRSTLQHPDYLQEYSTKYFYKQNGRIRPIVAENPEYLSEFSLKPGTVLPPPPYRHRNTVV
Km [1]: 37.6 µM
kcat [1]: 0.0767 s⁻¹
kcat/Km [1]: 2000 M⁻¹ s⁻¹
Km [2]: 6 µM
kcat [2]: 0.015 s⁻¹
kcat/Km [2]: 2500 M⁻¹ s⁻¹
Km [3]: 8 µM
kcat [3]: 0.0683 s⁻¹
kcat/Km [3]: 8500 M⁻¹ s⁻¹
Km [4]: 12.5 µM
kcat [4]: 0.0217 s⁻¹
kcat/Km [4]: 1670 M⁻¹ s⁻¹
Km [5]: 41 µM
kcat [5]: 0.105 s⁻¹
kcat/Km [5]: 2500 M⁻¹ s⁻¹
Km [6]: 144 µM
kcat [6]: 0.0767 s⁻¹
kcat/Km [6]: 533 M⁻¹ s⁻¹
